This assay has as its target T1, purified IKKγ (human, UniProt Q9Y6K9 1-419, limits assumed).
T1 construct: also called NEMO
Kind of assay: GST pull-down of purified IKKγ with GST-MUC1-CD fragments on glutathione beads, anti-IKKγ immunoblot (FIG. 5C). The text has this: FIG. 5C is a pair of photographs of immunoblots. […] The precipitates were immunoblotted (IB) with anti-IKKγ antibody. […] The molecular weights of proteins (as indicated on the left of the photographs) are expressed as kilodaltons (kDa).

No end group written: not given here.

Results on 1 molecule are retold here after US20080241125A1 (Dana-Farber, published 2008).

T1 sequence (Q9Y6K9 whole entry): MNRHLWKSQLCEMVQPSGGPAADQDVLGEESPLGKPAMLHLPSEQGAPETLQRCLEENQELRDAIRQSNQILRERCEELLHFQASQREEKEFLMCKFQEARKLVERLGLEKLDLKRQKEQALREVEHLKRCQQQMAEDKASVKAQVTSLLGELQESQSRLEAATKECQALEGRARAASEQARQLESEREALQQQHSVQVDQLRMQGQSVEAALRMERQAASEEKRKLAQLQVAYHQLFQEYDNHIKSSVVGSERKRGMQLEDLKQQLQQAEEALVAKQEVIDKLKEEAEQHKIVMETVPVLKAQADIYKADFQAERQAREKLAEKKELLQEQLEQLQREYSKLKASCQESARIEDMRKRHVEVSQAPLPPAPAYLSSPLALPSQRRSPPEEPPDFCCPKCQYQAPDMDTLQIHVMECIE

B1: GST-MUC1-CD(1-45) (other)
chain: CQCRRKNYGQLDIFPARDTYHPMSEYPTYHTHGRYVPPSSTDRSP
modifications: cysteine pairing not given here; also: GST fusion, GST sequence and linker not given here
notes: not shown: glutathione S-transferase (GST) tag
Turning to B1, the binding result is “no binding”.
